{
  "source": "paper PMC4855880",
  "about": "(Developmental cell, 2016)",
  "binders": {"B1": {"name": "GST-Cmd1 (natural protein)", "chain": "not shown"}},
  "target": "Rvs167 (1-265)/161 heterodimer (S. cerevisiae, UniProt P39743 1-265; P25343 1-265)",
  "experiment": "liposome flotation",
  "data": [
    {"binder": "B1", "values": [
      {"measurement": "stoichiometry N", "value": "~0.25 calmodulin per heterodimer"}
    ]}
  ]
}
